Results reported in the supplement of paper PMC11908140.

B1: library; numbered along this chain (parent)
chain: MRKPRAAVGSGHRKQAASQEGRQKHAKNNSQAKPSACDGLARQPEEVVLQASVSSYHLFRDVAEVTAFRGSLLSWYDQEKRDLPWRRRAEDEMDLDRRAYAVWVSEVMLQQTQVATVINYYTGWMQKWPTLQDLASASLEEVNQLWAGLGYYSRGRRLQEGARKVVEELGGHMPRTAETLQQLLPGVGRYTAGAIASIAFGQATGVVDGNVARVLCRVRAIGADPSSTLVSQQLWGLAQQLVDPARPGDFNQAAMELGATVCTPQRPLCSQCPVESLCRARQRVEQEQLLASGSLSGSPDVEECAPNTGQCHLCLPPSEPWDQTLGVVNFPRKASRKPPREESSATCVLEQPGALGAQILLVQRPNSGLLAGLWEFPSVTWEPSEQLQRKALLQELQRWAGPLPATHLRHLGEVVHTFSHIKLTYQVYGLALEGQTPVTTVPPGARWLTQEEFHTAAVSTAMKKVFRVYQGQQPGTCMGSKRSQVSSPCSRKKPRMGQQVLDNFFRSHISTDAHSLNSAAQ

Variants of: B1
Assay: 8OG:A repair function score (normalized; synonymous = 0, nonsense = -1) (normalized log-likelihood score); higher = more repair activity (WT-like)
Conditions: with 8OG:A DNA repair reporter (GFP) in HEK-293 MUTYH KO cells
Method in brief: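 MUTYH knockout HEK-293 cells carrying lentiviral MUTYH cDNA NNN codon-scan libraries were grown with 10 pg/ml doxycycline and co-transfected with mCherry and a GFP reporter of 8OG:A repair. Viable mCherry+ cells were sorted at 72 h into GFP+ (repair) and GFP− bins, with three replicates per tile, and tile amplicons were sequenced. Rosace fitness scores for each tile were turned into a normalized repair function score anchored on the synonymous and nonsense distributions. Synonymous medians were set to 0 and nonsense medians to -1, and variants below 300 counts per million at the start were dropped.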

| Variant | 8OG:A repair function score |
| --- | --- |
| MRKPRAAVGSGHRKQAASQEGRQKHAKNNSQAKPSACDGLARQPEEVVLQASVSSYHLFRDVAEVTAFRGSLLSWYDQEKRDLPWRRRAEDEMDLDRRAYAVWVSEVMLQQTQVATVINYYTGWMQKWPTLQDLASASLEEVNQLWAGLGYYSRGRRLQEGARKVVEELGGHMPRTAETLQQLLPGVGRYTAGAIASIAFGQATGVVDGNVARVLCRVRAIGADPSSTLVSQQLWGLAQQLVDPARPGDFNQAAMELGATVCTPQRPLCSQCPVESLCRARQRVEQEQLLASGSLSGSPDVEECAPNTGQCHLCLPPSEPWDQTLGVVNFPRKASRKPPREESSATCVLEQPGALGAQILLVQRPNSGLLAGLWEFPSVTWEPSEQLQRKALLQELQRWAGPLPATHLRHLGEVVHTFSHIKLTYQVYGLALEGQTPVTTVPPGARWLTQEEFHTAAVSTAMKKVFRVYQGQQPGQCMGSKRSQVSSPCSRKKPRMGQQVLDNFFRSHISTDAHSLNSAAQ [T476Q] | -0.0039 |
| MRKPRAAVGSGHRKQAASQEGRQKHAKNNSQAKPSACDGLARQPEEVVLQASVSSYHLFRDVAEVTAFRGSLLSWYDQEKRDLPWRRRAEDEMDLDRRAYAVWVSEVMLQQTQVATVINYYTGWMQKWPTLQDLASASLEEVNQLWAGLGYYSRGRRLQEGARKVVEELGGHMPRTAETLQQLLPGVGRYTAGAIASIAFGQATGVVDGNVARVLCRVRAIGADPSSTLVSQQLWGLAQQLVDPARPGDFNQAAMELGATVCTPQRPLCSQCPVESLCRARQRVEQEQLLASGSLSGSPDVEECAPNTGQCHLCLPPSEPWDQTLGVVNFPRKASRKPPREESSATCVLEQPGALGAQILLVQRPNSGLLAGLWEFPSVTWEPSEQLQRKALLQELQRWAGPLPATHLRHLGEVVHTFSHIKLTYQVYGLALEGQTPVTTVPPGARWLTQEEFHTAAVSTAMKKVFRVYQGQQPGYCMGSKRSQVSSPCSRKKPRMGQQVLDNFFRSHISTDAHSLNSAAQ [T476Y] | -0.0187 |
| MRKPRAAVGSGHRKQAASQEGRQKHAKNNSQAKPSACDGLARQPEEVVLQASVSSYHLFRDVAEVTAFRGSLLSWYDQEKRDLPWRRRAEDEMDLDRRAYAVWVSEVMLQQTQVATVINYYTGWMQKWPTLQDLASASLEEVNQLWAGLGYYSRGRRLQEGARKVVEELGGHMPRTAETLQQLLPGVGRYTAGAIASIAFGQATGVVDGNVARVLCRVRAIGADPSSTLVSQQLWGLAQQLVDPARPGDFNQAAMELGATVCTPQRPLCSQCPVESLCRARQRVEQEQLLASGSLSGSPDVEECAPNTGQCHLCLPPSEPWDQTLGVVNFPRKASRKPPREESSATCVLEQPGALGAQILLVQRPNSGLLAGLWEFPSVTWEPSEQLQRKALLQELQRWAGPLPATHLRHLGEVVHTFSHIKLTYQVYGLALEGQTPVTTVPPGARWLTQEEFHTAAVSTAMKKVFRVYQGQQPGRCMGSKRSQVSSPCSRKKPRMGQQVLDNFFRSHISTDAHSLNSAAQ [T476R] | -0.0215 |
| MRKPRAAVGSGHRKQAASQEGRQKHAKNNSQAKPSACDGLARQPEEVVLQASVSSYHLFRDVAEVTAFRGSLLSWYDQEKRDLPWRRRAEDEMDLDRRAYAVWVSEVMLQQTQVATVINYYTGWMQKWPTLQDLASASLEEVNQLWAGLGYYSRGRRLQEGARKVVEELGGHMPRTAETLQQLLPGVGRYTAGAIASIAFGQATGVVDGNVARVLCRVRAIGADPSSTLVSQQLWGLAQQLVDPARPGDFNQAAMELGATVCTPQRPLCSQCPVESLCRARQRVEQEQLLASGSLSGSPDVEECAPNTGQCHLCLPPSEPWDQTLGVVNFPRKASRKPPREESSATCVLEQPGALGAQILLVQRPNSGLLAGLWEFPSVTWEPSEQLQRKALLQELQRWAGPLPATHLRHLGEVVHTFSHIKLTYQVYGLALEGQTPVTTVPPGARWLTQEEFHTAAVSTAMKKVFRVYQGQQPGWCMGSKRSQVSSPCSRKKPRMGQQVLDNFFRSHISTDAHSLNSAAQ [T476W] | -0.159 |
| MRKPRAAVGSGHRKQAASQEGRQKHAKNNSQAKPSACDGLARQPEEVVLQASVSSYHLFRDVAEVTAFRGSLLSWYDQEKRDLPWRRRAEDEMDLDRRAYAVWVSEVMLQQTQVATVINYYTGWMQKWPTLQDLASASLEEVNQLWAGLGYYSRGRRLQEGARKVVEELGGHMPRTAETLQQLLPGVGRYTAGAIASIAFGQATGVVDGNVARVLCRVRAIGADPSSTLVSQQLWGLAQQLVDPARPGDFNQAAMELGATVCTPQRPLCSQCPVESLCRARQRVEQEQLLASGSLSGSPDVEECAPNTGQCHLCLPPSEPWDQTLGVVNFPRKASRKPPREESSATCVLEQPGALGAQILLVQRPNSGLLAGLWEFPSVTWEPSEQLQRKALLQELQRWAGPLPATHLRHLGEVVHTFSHIKLTYQVYGLALEGQTPVTTVPPGARWLTQEEFHTAAVSTAMKKVFRVYQGQQPGSCMGSKRSQVSSPCSRKKPRMGQQVLDNFFRSHISTDAHSLNSAAQ [T476S] | 0.00281 |
| MRKPRAAVGSGHRKQAASQEGRQKHAKNNSQAKPSACDGLARQPEEVVLQASVSSYHLFRDVAEVTAFRGSLLSWYDQEKRDLPWRRRAEDEMDLDRRAYAVWVSEVMLQQTQVATVINYYTGWMQKWPTLQDLASASLEEVNQLWAGLGYYSRGRRLQEGARKVVEELGGHMPRTAETLQQLLPGVGRYTAGAIASIAFGQATGVVDGNVARVLCRVRAIGADPSSTLVSQQLWGLAQQLVDPARPGDFNQAAMELGATVCTPQRPLCSQCPVESLCRARQRVEQEQLLASGSLSGSPDVEECAPNTGQCHLCLPPSEPWDQTLGVVNFPRKASRKPPREESSATCVLEQPGALGAQILLVQRPNSGLLAGLWEFPSVTWEPSEQLQRKALLQELQRWAGPLPATHLRHLGEVVHTFSHIKLTYQVYGLALEGQTPVTTVPPGARWLTQEEFHTAAVSTAMKKVFRVYQGQQPGVCMGSKRSQVSSPCSRKKPRMGQQVLDNFFRSHISTDAHSLNSAAQ [T476V] | -0.0294 |
| MRKPRAAVGSGHRKQAASQEGRQKHAKNNSQAKPSACDGLARQPEEVVLQASVSSYHLFRDVAEVTAFRGSLLSWYDQEKRDLPWRRRAEDEMDLDRRAYAVWVSEVMLQQTQVATVINYYTGWMQKWPTLQDLASASLEEVNQLWAGLGYYSRGRRLQEGARKVVEELGGHMPRTAETLQQLLPGVGRYTAGAIASIAFGQATGVVDGNVARVLCRVRAIGADPSSTLVSQQLWGLAQQLVDPARPGDFNQAAMELGATVCTPQRPLCSQCPVESLCRARQRVEQEQLLASGSLSGSPDVEECAPNTGQCHLCLPPSEPWDQTLGVVNFPRKASRKPPREESSATCVLEQPGALGAQILLVQRPNSGLLAGLWEFPSVTWEPSEQLQRKALLQELQRWAGPLPATHLRHLGEVVHTFSHIKLTYQVYGLALEGQTPVTTVPPGARWLTQEEFHTAAVSTAMKKVFRVYQGQQPGTAMGSKRSQVSSPCSRKKPRMGQQVLDNFFRSHISTDAHSLNSAAQ [C477A] | -0.00821 |
| MRKPRAAVGSGHRKQAASQEGRQKHAKNNSQAKPSACDGLARQPEEVVLQASVSSYHLFRDVAEVTAFRGSLLSWYDQEKRDLPWRRRAEDEMDLDRRAYAVWVSEVMLQQTQVATVINYYTGWMQKWPTLQDLASASLEEVNQLWAGLGYYSRGRRLQEGARKVVEELGGHMPRTAETLQQLLPGVGRYTAGAIASIAFGQATGVVDGNVARVLCRVRAIGADPSSTLVSQQLWGLAQQLVDPARPGDFNQAAMELGATVCTPQRPLCSQCPVESLCRARQRVEQEQLLASGSLSGSPDVEECAPNTGQCHLCLPPSEPWDQTLGVVNFPRKASRKPPREESSATCVLEQPGALGAQILLVQRPNSGLLAGLWEFPSVTWEPSEQLQRKALLQELQRWAGPLPATHLRHLGEVVHTFSHIKLTYQVYGLALEGQTPVTTVPPGARWLTQEEFHTAAVSTAMKKVFRVYQGQQPGTEMGSKRSQVSSPCSRKKPRMGQQVLDNFFRSHISTDAHSLNSAAQ [C477E] | -0.0756 |
| MRKPRAAVGSGHRKQAASQEGRQKHAKNNSQAKPSACDGLARQPEEVVLQASVSSYHLFRDVAEVTAFRGSLLSWYDQEKRDLPWRRRAEDEMDLDRRAYAVWVSEVMLQQTQVATVINYYTGWMQKWPTLQDLASASLEEVNQLWAGLGYYSRGRRLQEGARKVVEELGGHMPRTAETLQQLLPGVGRYTAGAIASIAFGQATGVVDGNVARVLCRVRAIGADPSSTLVSQQLWGLAQQLVDPARPGDFNQAAMELGATVCTPQRPLCSQCPVESLCRARQRVEQEQLLASGSLSGSPDVEECAPNTGQCHLCLPPSEPWDQTLGVVNFPRKASRKPPREESSATCVLEQPGALGAQILLVQRPNSGLLAGLWEFPSVTWEPSEQLQRKALLQELQRWAGPLPATHLRHLGEVVHTFSHIKLTYQVYGLALEGQTPVTTVPPGARWLTQEEFHTAAVSTAMKKVFRVYQGQQPGTDMGSKRSQVSSPCSRKKPRMGQQVLDNFFRSHISTDAHSLNSAAQ [C477D] | 0.016 |
| MRKPRAAVGSGHRKQAASQEGRQKHAKNNSQAKPSACDGLARQPEEVVLQASVSSYHLFRDVAEVTAFRGSLLSWYDQEKRDLPWRRRAEDEMDLDRRAYAVWVSEVMLQQTQVATVINYYTGWMQKWPTLQDLASASLEEVNQLWAGLGYYSRGRRLQEGARKVVEELGGHMPRTAETLQQLLPGVGRYTAGAIASIAFGQATGVVDGNVARVLCRVRAIGADPSSTLVSQQLWGLAQQLVDPARPGDFNQAAMELGATVCTPQRPLCSQCPVESLCRARQRVEQEQLLASGSLSGSPDVEECAPNTGQCHLCLPPSEPWDQTLGVVNFPRKASRKPPREESSATCVLEQPGALGAQILLVQRPNSGLLAGLWEFPSVTWEPSEQLQRKALLQELQRWAGPLPATHLRHLGEVVHTFSHIKLTYQVYGLALEGQTPVTTVPPGARWLTQEEFHTAAVSTAMKKVFRVYQGQQPGTFMGSKRSQVSSPCSRKKPRMGQQVLDNFFRSHISTDAHSLNSAAQ [C477F] | -0.0432 |
| MRKPRAAVGSGHRKQAASQEGRQKHAKNNSQAKPSACDGLARQPEEVVLQASVSSYHLFRDVAEVTAFRGSLLSWYDQEKRDLPWRRRAEDEMDLDRRAYAVWVSEVMLQQTQVATVINYYTGWMQKWPTLQDLASASLEEVNQLWAGLGYYSRGRRLQEGARKVVEELGGHMPRTAETLQQLLPGVGRYTAGAIASIAFGQATGVVDGNVARVLCRVRAIGADPSSTLVSQQLWGLAQQLVDPARPGDFNQAAMELGATVCTPQRPLCSQCPVESLCRARQRVEQEQLLASGSLSGSPDVEECAPNTGQCHLCLPPSEPWDQTLGVVNFPRKASRKPPREESSATCVLEQPGALGAQILLVQRPNSGLLAGLWEFPSVTWEPSEQLQRKALLQELQRWAGPLPATHLRHLGEVVHTFSHIKLTYQVYGLALEGQTPVTTVPPGARWLTQEEFHTAAVSTAMKKVFRVYQGQQPGTGMGSKRSQVSSPCSRKKPRMGQQVLDNFFRSHISTDAHSLNSAAQ [C477G] | -0.00235 |
| MRKPRAAVGSGHRKQAASQEGRQKHAKNNSQAKPSACDGLARQPEEVVLQASVSSYHLFRDVAEVTAFRGSLLSWYDQEKRDLPWRRRAEDEMDLDRRAYAVWVSEVMLQQTQVATVINYYTGWMQKWPTLQDLASASLEEVNQLWAGLGYYSRGRRLQEGARKVVEELGGHMPRTAETLQQLLPGVGRYTAGAIASIAFGQATGVVDGNVARVLCRVRAIGADPSSTLVSQQLWGLAQQLVDPARPGDFNQAAMELGATVCTPQRPLCSQCPVESLCRARQRVEQEQLLASGSLSGSPDVEECAPNTGQCHLCLPPSEPWDQTLGVVNFPRKASRKPPREESSATCVLEQPGALGAQILLVQRPNSGLLAGLWEFPSVTWEPSEQLQRKALLQELQRWAGPLPATHLRHLGEVVHTFSHIKLTYQVYGLALEGQTPVTTVPPGARWLTQEEFHTAAVSTAMKKVFRVYQGQQPGTHMGSKRSQVSSPCSRKKPRMGQQVLDNFFRSHISTDAHSLNSAAQ [C477H] | 0.0203 |
